Patent US20120207760A1

Experiments:
Details in all cases: remark: other sources report otherwise
[1] = target: recombinant homotrimeric HA, A/common magpie/Hong Kong/5052/07 H5N1 (Influenza A virus A/common magpie/Hong Kong/5052/07 (H5N1)); experiment: trimeric HA microarray, transfection set 2
[2] = target: T1, recombinant homotrimeric HA, A/California/4/09 H1N1 (Influenza A virus A/California/4/09 (H1N1)); experiment: trimeric HA microarray, transfection set 2
[3] = target: T2, recombinant homotrimeric HA, A/South Carolina/1/18 H1N1 (Influenza A virus A/South Carolina/1/18 (H1N1)); experiment: trimeric HA microarray, transfection set 2
[4] = target: T3, recombinant homotrimeric HA, A/Solomon Islands/3/06 H1N1 (Influenza A virus A/Solomon Islands/3/06 (H1N1)); experiment: trimeric HA microarray, transfection set 2
[5] = target: recombinant homotrimeric HA, A/Hong Kong/2108/03 H9N2 (Influenza A virus A/Hong Kong/2108/03 (H9N2)); experiment: trimeric HA microarray, transfection set 2
[6] = target: T4, recombinant homotrimeric HA, A/Indonesia/5/05 H5N1 (Influenza A virus A/Indonesia/5/05 (H5N1)); experiment: trimeric HA microarray, transfection set 2
[7] = target: T5, recombinant homotrimeric HA, A/Japan/305/57 H2N2 (Influenza A virus A/Japan/305/57 (H2N2)); experiment: trimeric HA microarray, transfection set 2
[8] = target: recombinant homotrimeric HA, A/chicken/Vietnam/NCVD-016/08 H5N1 (Influenza A virus A/chicken/Vietnam/NCVD-016/08 (H5N1)); experiment: trimeric HA microarray, transfection set 2
[9] = target: T6, recombinant homotrimeric HA, A/Vietnam/1203/04 H5N1 (Influenza A virus A/Vietnam/1203/04 (H5N1)); experiment: trimeric HA microarray, transfection set 2
[10] = target: T7, recombinant homotrimeric HA, A/swine/Ontario/01911-2/99 H4N6 (Influenza A virus A/swine/Ontario/01911-2/99 (H4N6)); experiment: trimeric HA microarray, transfection set 2
[11] = target: recombinant homotrimeric HA, A/Egypt/3300-NAMRU3/08 H5N1 (Influenza A virus A/Egypt/3300-NAMRU3/08 (H5N1)); experiment: trimeric HA microarray, transfection set 2
[12] = target: recombinant homotrimeric HA, A/Hong Kong/1073/99 H9N2 (Influenza A virus A/Hong Kong/1073/99 (H9N2)); experiment: trimeric HA microarray, transfection set 1
[13] = target: T8, recombinant homotrimeric HA, A/northern shoveler/California/HKWF115/07 (Influenza A virus A/northern shoveler/California/HKWF115/2007 (H6N1)); experiment: trimeric HA microarray, transfection set 1
[14] = target: T1, recombinant homotrimeric HA, …; experiment: trimeric HA microarray, transfection set 4
[15] = target: T2, recombinant homotrimeric HA, A/South …; experiment: trimeric HA microarray, transfection set 4
[16] = target: T3, recombinant homotrimeric HA, A/Solomon …; experiment: trimeric HA microarray, transfection set 4
[17] = target: T4, recombinant homotrimeric HA, …; experiment: trimeric HA microarray, transfection set 4
[18] = target: T5, recombinant homotrimeric HA, …; experiment: trimeric HA microarray, transfection set 4
[19] = target: T6, recombinant homotrimeric HA, …; experiment: trimeric HA microarray, transfection set 4
[20] = target: T7, recombinant homotrimeric HA, …; experiment: trimeric HA microarray, transfection set 4
[21] = target: T8, recombinant homotrimeric HA, A/northern …; experiment: trimeric HA microarray, transfection set 3
[22] = target: T9, recombinant homotrimeric HA, A/Netherlands/219/03 H7N7 (Influenza A virus A/Netherlands/219/03 (H7N7)); experiment: trimeric HA microarray, transfection set 1
[23] = target: T10, recombinant homotrimeric HA, A/duck/Yangzhou/02/05 H8N4 (Influenza A virus A/duck/Yangzhou/02/2005 (H8N4)); experiment: trimeric HA microarray, transfection set 1
[24] = target: T11, recombinant homotrimeric HA, A/Wisconsin/67/05 H3N2 (Influenza A virus A/Wisconsin/67/05 (H3N2)); experiment: trimeric HA microarray, transfection set 1
[25] = target: T12, recombinant homotrimeric HA, A/Anhui/1/05 H5N1 (Influenza A virus A/Anhui/1/05 (H5N1)); experiment: trimeric HA microarray, transfection set 1
[26] = target: T9, recombinant homotrimeric HA, …; experiment: trimeric HA microarray, transfection set 3
[27] = target: T10, recombinant homotrimeric HA, …; experiment: trimeric HA microarray, transfection set 3
[28] = target: T11, recombinant homotrimeric HA, …; experiment: trimeric HA microarray, transfection set 3
[29] = target: T12, recombinant homotrimeric HA, …; experiment: trimeric HA microarray, transfection set 3

B1: TCN-523 (5248_A17) (antibody, V domains shown)
VH: QVQLVQSGAEVKKPGSSVKVSCKASGGSFSNYAFSWVRQAPGQGLEWMGGTIPLLGTTNYAQKFQGRVTISADQFTSTAYMELGSLRSEDTAVYYCTRRKMTTAFDSWGQGTLVTVSS
VL: QPVLTQPPSASASLGASVTLTCTLSSAYSNYKVDWYQQRPGKGPRFVMRVGTGGIVGSKGDGIPDRFSVLGSGLNRYLTIKNIQEEDESDYHCGADHGSGSNFVSPYVFGGGTKLTVL
[1]
  Trimeric HA Binding RLU: 7210 RLU
[2]
  Trimeric HA Binding RLU: 18700 RLU
[3]
  Trimeric HA Binding RLU: 25500 RLU
[4]
  Trimeric HA Binding RLU: 3270 RLU
[5]
  Trimeric HA Binding RLU: 18 RLU
[6]
  Trimeric HA Binding RLU: 24500 RLU
[7]
  Trimeric HA Binding RLU: 882 RLU
[8]
  Trimeric HA Binding RLU: 17600 RLU
[9]
  Trimeric HA Binding RLU: 26200 RLU
[10]
  Trimeric HA Binding RLU: 82 RLU
[11]
  Trimeric HA Binding RLU: 30700 RLU
[12]
  Trimeric HA Binding RLU: 21700 RLU
[13]
  Trimeric HA Binding RLU: 9050 RLU
[14]
  Trimeric HA Binding RLU: 28800 RLU
[15]
  Trimeric HA Binding RLU: 23000 RLU
[16]
  Trimeric HA Binding RLU: 371 RLU
[17]
  Trimeric HA Binding RLU: 24500 RLU
[18]
  Trimeric HA Binding RLU: 3840 RLU
[19]
  Trimeric HA Binding RLU: 30900 RLU
[20]
  Trimeric HA Binding RLU: 850 RLU
[21]
  Trimeric HA Binding RLU: 29400 RLU

B2: TCN-504 (3251_K17) (antibody, V domains shown)
VH: QVQLQESGPGLVKPSETLSLTCAVSGVSISNIDFYWGWIRQPPGKGLEWIGNIYYTGITFYNPSLSSRVAISIDTSKNQFSLTLTSVTAADTAMYYCARHYGDSEAINDAFDIWGQGTMLTVSS
VL: EIVMTQSPATLSVSPGERATLSCRASQSVGNSLAWYQQRPGQAPRLLIYGASTRATGIPPRFSGSGSGTEFTLTISSLQTEDFAVYYCQQYINWRPLSFGGGTKVEIK
[1]
  Trimeric HA Binding RLU: 16800 RLU
[2]
  Trimeric HA Binding RLU: 15600 RLU
[3]
  Trimeric HA Binding RLU: 24700 RLU
[4]
  Trimeric HA Binding RLU: 31400 RLU
[5]
  Trimeric HA Binding RLU: 23 RLU
[6]
  Trimeric HA Binding RLU: 19700 RLU
[7]
  Trimeric HA Binding RLU: 22600 RLU
[8]
  Trimeric HA Binding RLU: 27300 RLU
[9]
  Trimeric HA Binding RLU: 15000 RLU
[10]
  Trimeric HA Binding RLU: 32500 RLU
[11]
  Trimeric HA Binding RLU: 21400 RLU
[22]
  Trimeric HA Binding RLU: 23800 RLU
[23]
  Trimeric HA Binding RLU: 28900 RLU
[24]
  Trimeric HA Binding RLU: 14300 RLU
[25]
  Trimeric HA Binding RLU: 29000 RLU
[14]
  Trimeric HA Binding RLU: 549 RLU
[15]
  Trimeric HA Binding RLU: 21700 RLU
[16]
  Trimeric HA Binding RLU: 14600 RLU
[17]
  Trimeric HA Binding RLU: 18200 RLU
[18]
  Trimeric HA Binding RLU: 19600 RLU
[19]
  Trimeric HA Binding RLU: 25700 RLU
[20]
  Trimeric HA Binding RLU: 21800 RLU
[26]
  Trimeric HA Binding RLU: 19600 RLU
[27]
  Trimeric HA Binding RLU: 19600 RLU
[28]
  Trimeric HA Binding RLU: 21400 RLU
[29]
  Trimeric HA Binding RLU: 30000 RLU
